Laboratory results as given in patent US20240138384A1.

Target: humanized CD47 polypeptide on red blood cells from humanized CD47 mice (human extracellular and transmembrane portions with mouse signal peptide portion and mouse intracytoplasmic tail) (UniProt Q08722)
Experiment: flow cytometry on RBCs from humanized CD47 mice, isotype control (baseline)

UniProt Q08722, sequence (Q08722 other isoform, or with tags, fused parts or gaps limits assumed): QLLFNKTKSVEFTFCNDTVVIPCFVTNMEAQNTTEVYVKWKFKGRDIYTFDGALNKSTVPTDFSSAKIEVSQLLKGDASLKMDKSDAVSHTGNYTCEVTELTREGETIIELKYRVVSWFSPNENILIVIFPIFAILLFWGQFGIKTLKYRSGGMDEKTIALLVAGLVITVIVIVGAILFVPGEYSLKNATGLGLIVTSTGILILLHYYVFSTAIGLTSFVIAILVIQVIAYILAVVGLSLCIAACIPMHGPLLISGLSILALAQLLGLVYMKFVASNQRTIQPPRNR

MFI [MFI]	Substance
112	Control, hIgG4s (antibody)
112	Control, hIgG4 (antibody)
